In patent US6153408A, “Altered major histocompatibility complex (MHC) determinant and methods of using the determinant” (Institut Pasteur and Institut National de la Sante et de la …, priority 1995, dated 2000):
Values joined by “and” are separate entries in the source; they are usually repeats but may differ in a detail not shown here. Equal values may be shown once.

Key:
SC-K^d -15 [1] = target: T1, SC-K^d -15 (Mus musculus, UniProt P01887+P01902); test: Direct peptide binding assay: 35S-labeled SC-Kd-15 on plastic-coated peptides; conditions: for ^35 S-labeled SC-Kd bound to coated peptide: duplicates; for binding of peptide to SC-K^d -15 (in words): direct assay
T1 construct: connecting residue 276 of K^d heavy chain to the first residue of β2 -microglobulin; mature mouse beta2-microglobulin, fused after the spacer (same polypeptide); expressed in transfected cells; host or cells: monkey COS-1 cells, transient
T1 sequence (P01902+P01887 with tags, fused parts or gaps): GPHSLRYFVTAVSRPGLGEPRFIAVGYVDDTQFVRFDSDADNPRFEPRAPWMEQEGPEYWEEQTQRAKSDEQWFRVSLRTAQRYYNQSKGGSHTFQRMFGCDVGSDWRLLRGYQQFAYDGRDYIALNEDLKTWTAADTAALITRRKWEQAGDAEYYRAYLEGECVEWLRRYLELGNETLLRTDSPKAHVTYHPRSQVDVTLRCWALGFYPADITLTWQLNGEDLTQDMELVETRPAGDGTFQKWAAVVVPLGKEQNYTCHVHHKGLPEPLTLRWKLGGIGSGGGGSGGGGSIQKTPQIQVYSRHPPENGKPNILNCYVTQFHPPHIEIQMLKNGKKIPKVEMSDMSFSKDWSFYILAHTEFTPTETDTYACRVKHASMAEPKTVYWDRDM
Protocol: (§1) Direct Peptide Binding Assay. Wells of microtiter plates are pretreated with 100 μl 2.5% glutaraldehyde in distilled water for 2 h at 20° C., washed with distilled water, […] buffer, pH 9.6, or in PBS, pH 7.4 or pH 5.0. Remaining free sites are blocked by incubation for 2 h at 20° C. with BSA diluted 1% in PBS containing 0.05% Tween 20 (Tw) and 0.02% sodium azoture. […] After extensive washing, the radioactivity of each well is counted.
COS-1 cells (usually 10^7 cells) were transfected with pSC-K^d -15 DNA, labeled and lysed as above. […] After the final wash in PBS, SC-K^d -15 was eluted from the matrix with an equal volume of 3 M thiocyanate for 10 min on ice. After an overnight dialysis in PBS containing 0.1% NP40, 0.05% Tween and 0.2% BSA, SC-K^d -15 was used in direct binding test as below. Its purity was assessed by SDS-PAGE.
K^d molecules isolated from the spleen of BALB/c mice were then purified and iodinated.

HLA-DR3 = HLA-DR3 (Homo sapiens, UniProt P01903+P01911); test: Direct peptide binding assay: 125I-labeled HLA-DR3 (positive control); conditions: for binding of peptide to HLA-DR3 positive control (in words): direct assay
HLA-DR3, sequence (P01903 26-254): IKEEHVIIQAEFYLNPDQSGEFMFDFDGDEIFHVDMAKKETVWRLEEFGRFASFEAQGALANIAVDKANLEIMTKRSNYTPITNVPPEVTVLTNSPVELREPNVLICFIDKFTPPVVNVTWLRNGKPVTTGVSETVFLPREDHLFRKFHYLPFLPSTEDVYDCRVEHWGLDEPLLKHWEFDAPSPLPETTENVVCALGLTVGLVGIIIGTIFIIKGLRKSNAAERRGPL
HLA-DR3, sequence (P01911 30-266): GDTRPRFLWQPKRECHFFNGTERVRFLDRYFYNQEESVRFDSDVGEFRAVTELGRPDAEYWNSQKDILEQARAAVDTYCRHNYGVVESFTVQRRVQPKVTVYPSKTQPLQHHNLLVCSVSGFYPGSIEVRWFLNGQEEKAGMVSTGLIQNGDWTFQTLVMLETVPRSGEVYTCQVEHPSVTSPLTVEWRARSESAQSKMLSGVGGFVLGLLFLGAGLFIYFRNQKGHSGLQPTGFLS
Protocol: as §1

HLA-DRw13 = HLA-DRw13 (Homo sapiens, UniProt P01903+P01911); test: Direct peptide binding assay: 125I-labeled HLA-DRw13 (positive control); conditions: for binding of peptide to DRw13 positive control (in words): direct assay, printed DR213
HLA-DRw13, sequence (P01903 26-254): as the sequence (P01903 26-254) above
HLA-DRw13, sequence (P01911 30-266): as the sequence (P01911 30-266) above
Protocol: Direct Peptide Binding Assay. Wells of microtiter plates are pretreated with 100 μl 2.5% glutaraldehyde in distilled water for 2 h at 20° C., washed with distilled water, and coated for 16 h at 4° C. with 100 μl of peptide diluted at 5 μg/ml either in carbonate-bicarbonate buffer, pH 9.6, or in PBS, pH 7.4 or pH 5.0. Remaining free sites are blocked by incubation for 2 h at 20° C. with BSA diluted 1% in PBS containing 0.05% Tween 20 (Tw) and 0.02% sodium azoture. […] After extensive washing, the radioactivity of each well is counted.

H-2K = target: T2, H-2K (Mus musculus, UniProt P01902); test: Direct peptide binding assay: 125I-labeled conventional Kd from BALB/c spleen
T2 construct: K^d molecules isolated from the spleen of BALB/c mice were then purified and iodinated; from tissue; host or cells: spleen of BALB/c mice
T2 sequence (P01902 22-368): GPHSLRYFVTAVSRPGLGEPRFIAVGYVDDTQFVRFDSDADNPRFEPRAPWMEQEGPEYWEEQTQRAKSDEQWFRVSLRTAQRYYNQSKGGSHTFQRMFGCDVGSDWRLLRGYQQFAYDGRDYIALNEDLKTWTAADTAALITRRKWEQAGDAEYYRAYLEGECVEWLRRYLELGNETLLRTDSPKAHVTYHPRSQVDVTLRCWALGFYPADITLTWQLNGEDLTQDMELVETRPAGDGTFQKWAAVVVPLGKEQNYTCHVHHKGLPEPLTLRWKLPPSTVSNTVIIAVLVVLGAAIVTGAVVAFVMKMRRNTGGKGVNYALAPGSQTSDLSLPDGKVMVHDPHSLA
T2 sequence (P01887 21-119 partner): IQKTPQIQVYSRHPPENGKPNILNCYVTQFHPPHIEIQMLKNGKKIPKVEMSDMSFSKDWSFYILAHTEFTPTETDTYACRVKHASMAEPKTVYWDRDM
Protocol: Direct Peptide Binding Assay. Wells of microtiter plates are pretreated with 100 μl 2.5% glutaraldehyde in distilled water for 2 h at 20° C., washed with distilled water, and coated for 16 h at 4° C. with 100 μl of peptide diluted at 5 μg/ml either in carbonate-bicarbonate buffer, pH 9.6, or in PBS, pH 7.4 or pH 5.0. Remaining free sites are blocked by incubation for 2 h at 20° C. with BSA diluted 1% in PBS containing 0.05% Tween 20 (Tw) and 0.02% sodium azoture. After washing, purified ^125 I-HLA molecules (100 μl containing 1.5×10^5 cpm, 10^-9 M) diluted in PBS containing 1% BSA, 0.05% Tw, 0.02% sodium azoture, 1 mM PMSF, and 10 μg/ml trypsin inhibitor are added and incubated for 20 h at 20° C. After extensive washing, the radioactivity of each well is counted.
Peptides used in this study are described in Choppin et al. (Choppin, J., Martinon, F., Gomard, E., Bahraoui, E., Connan, F., Bouillot, F., and Levy, J. -P, J. Exp. Med., 1990. 172:889 and references therein), except for HLA-Cw3 and HLA-A24 described in Maryanski, J. Ll, Pala, P., Cerottini, J. -C, and Corradin, G., J. Exp. Med. 1988. 167:1391. Binding assays were performed as described in Choppin, J., Martinon, F., Gomard, E., Bahraoui, E., Connan, F., Bouillot, F., and Levy, J. -P, J. Exp. Med., 1990. 172:889. […]

SC-K^d -15 [2] = target: T1, SC-K^d -15; test: Competition experiment, env 312-327 bound to plastic, 35S-labeled SC-Kd; assay type: binding; conditions: Table (B) shows it for SC-Kd and H-2K

Row | Sequence | ^35 S-labeled SC-Kd bound to coated peptide (SC-K^d -15 [1]; Table 10 (A), peptide 30 μg/ml, pH 9.6, input 10,000 cpm) | ^35 S-labeled SC-Kd bound to coated peptide (SC-K^d -15 [1]; Table (B), peptide 5 μg/ml, pH 9.6, input 6000 cpm, no coated peptide 228/223) | binding of peptide to SC-K^d -15 (in words) (SC-K^d -15 [1]) | binding of peptide to HLA-DR3 positive control (in words) (HLA-DR3) | binding of peptide to DRw13 positive control (in words) (HLA-DRw13) | binding of peptide to conventional K^d (in words) (H-2K) | ^35 S-labeled SC-Kd bound to coated peptide (SC-K^d -15 [1]; Table 10 (A), peptide 10 μg/ml, pH 5, input 10,000 cpm) | ^125 I-labeled HLA-DR3 bound to coated peptide (HLA-DR3; Table 10 (A), peptide 10 μg/ml, pH 5, input 200000 cpm, first value of cell, duplicates) | ^125 I-labeled HLA-DRw13 bound to coated peptide (HLA-DRw13; Table 10 (A), peptide 10 μg/ml, pH 5, input 200000 cpm, second value of cell, duplicates) | competition with plastic-bound env 312-327 peptide (in words) (SC-K^d -15 [2])
1 | IRIQRGPGRAFVTIGK [env 312-327, HIV 1 Env peptide, residues 312-327] | 750 cpm | 390 cpm | significant binding | significant binding | significant binding | found to bind |  |  |  | 
2 | LFIHFRIGCRHSR [vpr 68-80] |  |  | significant binding | significant binding | significant binding |  | 710 cpm and 621 cpm | 18582 cpm and 18245 cpm | 21838 cpm and 20593 cpm | competed efficiently
